Here are results for 5 substances from the supplement of paper PMC5998384.

Series [1] concerns HeLa Kyoto. The experiment in a line: thermal stability score vs G1/S (z-score of summed log2 fold changes over temperatures); higher = more thermally stable than in G1/S.
In series [2] the test system is HeLa Kyoto. As to the kind of experiment: solubility change mitosis vs G1/S (difference of NP-40 vs SDS log2 ratios) (log2 ratio difference); higher = more soluble in mitosis.
Series [3] has as its system HeLa Kyoto. The experiment in a line: melting temperature (median over replicates), in situ; higher = more thermally stable.
Series [4] concerns HeLa Kyoto. As to the kind of experiment: solubility in G1/S (NP-40 vs SDS abundance) (log2 ratio); higher = more soluble. Conditions: cell cycle stage: G1/S.
Setting [5] is: cell cycle stage: early G1 (4.5 h after nocodazole release).
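Throughout, for melting temperature (median over replicates), in situ: HeLa Kyoto cells synchronized by double thymidine or nocodazole block, proteins quantified by TMT10plex mass spectrometry, three independent biological replicates.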
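Throughout, for solubility change mitosis vs G1/S (difference of NP-40 vs SDS log2 ratios): synchronized HeLa Kyoto cells (double thymidine block for G1/S, nocodazole release for mitosis), protein amounts in NP-40 versus SDS lysates quantified by mass spectrometry, three biological replicates.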
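Throughout, for solubility in G1/S (NP-40 vs SDS abundance): HeLa Kyoto cells arrested at G1/S by double thymidine block, proteins quantified by TMT10plex mass spectrometry in mild NP-40 versus SDS extracts, three biological replicates.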
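Throughout, for thermal stability score vs G1/S (z-score of summed log2 fold changes over temperatures): synchronized HeLa Kyoto cells, proteins quantified by TMT10plex mass spectrometry, three biological replicates, mitosis taken 0.5 h after nocodazole release, G1/S directly after double thymidine block.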

Consider “MEATGTWALLLALALLLLLTLALSGTRARGHLPPGPTPLPLLGNLLQLRPGALYSGLMRLSKKYGPVFTIYLGPWRPVVVLVGQEAVREALGGQAEEFSGRGTVAMLEGTFDGHGVFFSNGERWRQLRKFTMLALRDLGMGKREGEELIQAEARCLVETFQGTEGRPFDPSLLLAQATSNVVCSLLFGLRFSYEDKEFQAVVRAAGGTLLGVSSQGGQTYEMFSWFLRPLPGPHKQLLHHVSTLAAFTVRQVQQHQGNLDASGPARDLVDAFLLKMAQEEQNPGTEFTNKNMLMTVIYLLFAGTMTVSTTVGYTLLLLMKYPHVQKWVREELNRELGAGQAPSLGDRTRLPYTDAVLHEAQRLLALVPMGIPRTLMRTTRFRGYTLPQGTEVFPLLGSILHDPNIFKHPEEFNPDRFLDADGRFRKHEAFLPFSLGKRVCLGEGLAKAELFLFFTTILQAFSLESPCPPDTLSLKPTVSGLFNIPPAFQLQVRPTDLHSTTQTR [CYP2S1]”, for which the thermal stability score in the series with HeLa Kyoto [1] (setting [5]) was -1.27; in the series with HeLa Kyoto [1] (cell cycle stage: mitosis), 0.83. In the series on HeLa Kyoto [2], the “solubility change mitosis (log2)” value is -0.159. The melting temperature in the series with HeLa Kyoto [3] (cell cycle stage: G1/S) and in the series on HeLa Kyoto [3] (cell cycle stage: mitosis) was 57.4 °C in each case. Besides, in the series with HeLa Kyoto [4], the “solubility in G1/S (log2)” value was -0.0959.

As to “MECLRSLPCLLPRAMRLPRRTLCALALDVTSVGPPVAACGRRANLIGRSRAAQLCGPDRLRVAGEVHRFRTSDVSQATLASVAPVFTVTKFDKQGNVTSFERKKTELYQELGLQARDLRFQHVMSITVRNNRIIMRMEYLKAVITPECLLILDYRNLNLEQWLFRELPSQLSGEGQLVTYPLPFEFRAIEALLQYWINTLQGKLSILQPLILETLDALVDPKHSSVDRSKLHILLQNGKSLSELETDIKIFKESILEILDEEELLEELCVSKWSDPQVFEKSSAGIDHAEEMELLLENYYRLADDLSNAARELRVLIDDSQSIIFINLDSHRNVMMRLNLQLTMGTFSLSLFGLMGVAFGMNLESSLEEDHRIFWLITGIMFMGSGLIWRRLLSFLGRQLEAPLPPMMASLPKKTLLADRSMELKNSLRLDGLGSGRSILTNR [MRS2]”, the thermal stability score with HeLa Kyoto [1] (setting [5]) was -1.88; in the series on HeLa Kyoto [1] (cell cycle stage: mitosis), -2.56. For the same substance, the “solubility change mitosis (log2)” value in the series with HeLa Kyoto [2] came to 0.124. The results for the melting temperature with HeLa Kyoto [3] (cell cycle stage: G1/S) and in the series on HeLa Kyoto [3] (cell cycle stage: mitosis) were 55.4 °C and 54.5 °C, respectively. Also, the “solubility in G1/S (log2)” value in the series with HeLa Kyoto [4] is -0.297.

In the case of MED14, the values for the thermal stability score with HeLa Kyoto [1] (setting [5]) and in the series with HeLa Kyoto [1] (cell cycle stage: mitosis) were 0.0685 and 1.11, respectively. The “solubility change mitosis (log2)” value in the series on HeLa Kyoto [2] was -0.0671. The melting temperature in the series on HeLa Kyoto [3] (cell cycle stage: G1/S) came out at 48.7 °C; with HeLa Kyoto [3] (cell cycle stage: mitosis), 50.1 °C. Further, the “solubility in G1/S (log2)” value in the series on HeLa Kyoto [4] was -0.117.

Turning to “MEDFARGAASPGPSRPGLVPVSIIGAEDEDFENELETNSEEQNSQFQSLEQVKRRPAHLMALLQHVALQFEPGPLLCCLHADMLGSLGPKEAKKAFLDFYHSFLEKTAVLRVPVPPNVAFELDRTRADLISEDVQRRFVQEVVQSQQVAVGRQLEDFRSKRLMGMTPWEQELAQLEAWVGRDRASYEARERHVAERLLMHLEEMQHTISTDEEKSAAVVNAIGLYMRHLGVRTKSGDKKSGRNFFRKKVMGNRRSDEPAKTKKGLSSILDAARWNRGEPQVPDFRHLKAEVDAEKPGATDRKGGVGMPSRDRNIGAPGQDTPGVSLHPLSLDSPDREPGADAPLELGDSSPQGPMSLESLAPPESTDEGAETESPEPGDEGEPGRSGLELEPEEPPGWRELVPPDTLHSLPKSQVKRQEVISELLVTEAAHVRMLRVLHDLFFQPMAECLFFPLEELQNIFPSLDELIEVHSLFLDRLMKRRQESGYLIEEIGDVLLARFDGAEGSWFQKISSRFCSRQSFALEQLKAKQRKDPRFCAFVQEAESRPRCRRLQLKDMIPTEMQRLTKYPLLLQSIGQNTEEPTEREKVELAAECCREILHHVNQAVRDMEDLLRLKDYQRRLDLSHLRQSSDPMLSEFKNLDITKKKLVHEGPLTWRVTKDKAVEVHVLLLDDLLLLLQRQDERLLLKSHSRTLTPTPDGKTMLRPVLRLTSAMTREVATDHKAFYVLFTWDQEAQIYELVAQTVSERKNWCALITETAGSLKVPAPASRPKPRPSPSSTREPLLSSSENGNGGRETSPADARTERILSDLLPFCRPGPEGQLAATALRKVLSLKQLLFPAEEDNGAGPPRDGDGVPGGGPLSPARTQEIQENLLSLEETMKQLEELEEEFCRLRPLLSQLGGNSVPQPGCT [ARHGEF1]”, the thermal stability score with HeLa Kyoto [1] (setting [5]) was 1.08; in the series with HeLa Kyoto [1] (cell cycle stage: mitosis), 1.58. Moreover, in the series with HeLa Kyoto [2], the “solubility change mitosis (log2)” value was -0.134. Further, the values for the melting temperature in the series on HeLa Kyoto [3] (cell cycle stage: G1/S) and in the series with HeLa Kyoto [3] (cell cycle stage: mitosis) were 49.2 °C and 49.1 °C, respectively. The “solubility in G1/S (log2)” value in the series on HeLa Kyoto [4] amounted to 0.0626.

“MEDSEALGFEHMGLDPRLLQAVTDLGWSRPTLIQEKAIPLALEGKDLLARARTGSGKTAAYAIPMLQLLLHRKATGPVVEQAVRGLVLVPTKELARQAQSMIQQLATYCARDVRVANVSAAEDSVSQRAVLMEKPDVVVGTPSRILSHLQQDSLKLRDSLELLVVDEADLLFSFGFEEELKSLLCHLPRIYQAFLMSATFNEDVQALKELILHNPVTLKLQESQLPGPDQLQQFQVVCETEEDKFLLLYALLKLSLIRGKSLLFVNTLERSYRLRLFLEQFSIPTCVLNGELPLRSRCHIISQFNQGFYDCVIATDAEVLGAPVKGKRRGRGPKGDKASDPEAGVARGIDFHHVSAVLNFDLPPTPEAYIHRAGRTARANNPGIVLTFVLPTEQFHLGKIEELLSGENRGPILLPYQFRMEEIEGFRYRCRDAMRSVTKQAIREARLKEIKEELLHSEKLKTYFEDNPRDLQLLRHDLPLHPAVVKPHLGHVPDYLVPPALRGLVRPHKKRKKLSSSCRKAKRAKSQNPLRSFKHKGKKFRPTAKPS [DDX56]”: the figures for the thermal stability score in the series on HeLa Kyoto [1] (setting [5]) and in the series with HeLa Kyoto [1] (cell cycle stage: mitosis) were 0.609 and 0.497, respectively. In the series on HeLa Kyoto [2], the “solubility change mitosis (log2)” value was 0.785. The melting temperature in the series on HeLa Kyoto [3] (cell cycle stage: G1/S) amounted to 51.8 °C; in the series with HeLa Kyoto [3] (cell cycle stage: mitosis), 52 °C. The “solubility in G1/S (log2)” value with HeLa Kyoto [4] was -1.13.
